Seven compounds from patent US20240216513A1, “FATTY ACID-BIFUNCTIONAL DEGRADER CONJUGATES AND THEIR METHODS OF USE” (Novartis AG, priority 2021, published 2024) can be followed below.

Data set [1] in a line: BTK FAC plasma stability assay, PBS buffer arm. Type of data set: physicochemical. The following applies: for Plasma stability (h) PBS: incubation to 24 h. How it is done: (§1) Plasma stability was conducted in Dulbecco's PBS buffer, mouse plasma, rat plasma or human plasma frozen with K3-EDTA from BiolVT). Thawed plasma was centrifuged prior to warming for 5 minutes at 37° C. Working solutions were prepared from 10 mM DMSO solution to 500 µM in acetonitrile:water (1:1); 2 µL of working solution was added to 198 µL blank plasma or PBS and mixed manually. 4×45 µL of spiked matrix was aliquoted into glass incubation plates (96-well DW glass microplate) and sealed with blue silicon/PTFE seal; then incubated on a Thermo shaker (38° C. 300 RPM). Samples were prepared at 0, 2, 6 and 24 h timepoints, by protein precipitation with chilled acetonitrile containing internal standard Glyburide (0.2 µM). Precipitated samples were shaken for 10 minutes and stored at 4° C. until completion of the study. Following precipitation of the terminal sample, samples were frozen at −80° C. for 1 hour. Samples were then thawed prior to centrifugation (20 minutes, 4500 RPM at 4° C.). 50 µL of supernatant of each sample was transferred to 384 well analysis plate containing 30 µL of water. Semi quantitative analysis (analyte: internal standard peak area ratio) was performed by LC-MS/MS using a Sciex QTrap 5500.

The nature of data set [2]: BTK FAC plasma stability assay, mouse plasma. The following applies: for Plasma stability (h) mouse / half-life at 5 µM: incubation to 24 h. Type of data set: in vitro ADME. The procedure:
as §1

The nature of data set [3]: BTK FAC plasma stability assay, rat plasma. Type of data set: in vitro ADME. The following applies: for Plasma stability (h) rat / half-life at 5 µM: incubation to 24 h. The procedure:
as §1

Data set [4] in a line: BTK FAC plasma stability assay, dog plasma. Type of data set: in vitro ADME. To be noted: for half-life at 5 µM: read-out: Plasma stability (h) dog (converted).

Regarding `CCCCCCCCCCCN(C(=O)CCCCCCCCCC(=O)O)[C@H](CCC(=O)NCCOCCOCCOCCOCCOCCOCCOCCOCCOCCOCCOCCOCCC(=O)NCC(=O)OC(C)(C)c1ccc(C(=O)Nc2cc(F)cc(-c3ncnc4[nH]c(-c5ccc(CCN6CCC7(CC6)CCN(C(=O)c6ccc(OC)c(N8CCC(=O)NC8=O)c6)CC7)cc5)cc34)c2C)c(F)c1)C(=O)O` [Example A3, (R)-50-Carboxy-2-(4-((3-(6-(4-(2-(9-(3-(2,4-dioxotetrahydropyrimidin-1(2H)-yl)-4-methoxybenzoyl)-3,9-diazaspiro[5.5]undecan-3-yl)ethyl)phenyl)-7H-pyrrolo[2,3-d]pyrimidin-4-yl)-5-fluoro-2-methylphenyl)carbamoyl)-3-fluorophenyl)-2-methyl-4,7,47,52-tetraoxo-51-undecyl-3,10,13,16,19,22,25,28,31,34,37,40,43-tridecaoxa-6,46,51-triazadohexacontan-62-oic acid], in data set [1], the “% Release of degrader after 24 h PBS” value came to 1.9% and the “Plasma stability (h) PBS” value is on record as >48 h. Moreover, in data set [2], the “% Release of degrader after 24 h mouse” value amounted to 5.2% and the “Plasma stability (h) mouse” value is listed as >48 h. Further, in data set [3], the “% Release of degrader after 24 h rat” value was found to be 9% and the “Plasma stability (h) rat” value is reported as >48 h. In data set [4], the “Plasma stability (h) dog” value worked out at 44.4 h and the “% Release of degrader after 24 h dog” value was found to be 9.7%.

As to `CCCCCCCCCCCN(C(=O)CCCCCCCCCC(=O)O)[C@@H](CCC(=O)NCC(=O)OC(C)(C)c1ccc(C(=O)Nc2cc(F)cc(-c3ncnc4[nH]c(-c5ccc(CCN6CCC7(CC6)CCN(C(=O)c6ccc(OC)c(N8CCC(=O)NC8=O)c6)CC7)cc5)cc34)c2C)c(F)c1)C(=O)O` [Example A6, (S)-11-((1-Carboxy-4-((2-((2-(4-((3-(6-(4-(2-(9-(3-(2,4-dioxotetrahydropyrimidin-1(2H)-yl)-4-methoxybenzoyl)-3,9-diazaspiro[5.5]undecan-3-yl)ethyl)phenyl)-7H-pyrrolo[2,3-d]pyrimidin-4-yl)-5-fluoro-2-methylphenyl)carbamoyl)-3-fluorophenyl)propan-2-yl)oxy)-2-oxoethyl)amino)-4-oxobutyl)(undecyl)amino)-11-oxoundecanoic acid], in data set [1], the “% Release of degrader after 24 h PBS” value turned out to be 0.4% and the “Plasma stability (h) PBS” value is recorded as >48 h. In addition, in data set [2], the “% Release of degrader after 24 h mouse” value turned out to be 37.4% and the half-life at 5 µM was 10.7 h. Also, in data set [3], the “% Release of degrader after 24 h rat” value is 21.1% and the half-life at 5 µM was 36.6 h. Further, in data set [4], the “% Release of degrader after 24 h dog” value is given as 4.6% and the half-life at 5 µM was 12.7 h.

Take `CCCCCCCCCCCN(C(=O)CCCCCCCCCC(=O)O)C(CCC(=O)NCCOCCOCCOCCOCCC(=O)NCC(=O)OC(C)(C)c1ccc(C(=O)Nc2cc(F)cc(-c3ncnc4[nH]c(-c5ccc(CCN6CCC7(CC6)CCN(C(=O)c6ccc(OC)c(N8CCC(=O)NC8=O)c6)CC7)cc5)cc34)c2C)c(F)c1)C(=O)O` (stereo not drawn) [Example A7, 26-Carboxy-2-(4-((3-(6-(4-(2-(9-(3-(2,4-dioxotetrahydropyrimidin-(2H)-yl)-4-methoxybenzoyl)-3,9-diazaspiro[5.5]undecan-3-yl)ethyl)phenyl)-7H-pyrrolo[2,3-d]pyrimidin-4-yl)-5-fluoro-2-methylphenyl)carbamoyl)-3-fluorophenyl)-2-methyl-4,7,23,28-tetraoxo-27-undecyl-3,10,13,16,19-pentaoxa-6,22,27-triazaoctatriacontan-38-oicacid]: in data set [1], the “% Release of degrader after 24 h PBS” value came to 1.5% and the “Plasma stability (h) PBS” value is >48 h. In data set [2], the “% Release of degrader after 24 h mouse” value is recorded as 53.6% and the “Plasma stability (h) mouse” value is 10.1 h.

`CCCCCCCCCCCN(C(=O)CCCCCCCCCC(=O)O)C(CCC(=O)NCCOCCOCCOCCOCCOCCOCCOCCOCCC(=O)NCC(=O)OC(C)(C)c1ccc(C(=O)Nc2cc(F)cc(-c3ncnc4[nH]c(-c5ccc(CCN6CCC7(CC6)CCN(C(=O)c6ccc(OC)c(N8CCC(=O)NC8=O)c6)CC7)cc5)cc34)c2C)c(F)c1)C(=O)O` (stereo not drawn) [Example A8, 38-Carboxy-2-(4-((3-(6-(4-(2-(9-(3-(2,4-dioxotetrahydropyrimidin-(2H)-yl)-4-methoxybenzoyl)-3,9-diazaspiro[5.5]undecan-3-yl)ethyl)phenyl)-7H-pyrrolo[2,3-d]pyrimidin-4-yl)-5-fluoro-2-methylphenyl)carbamoyl)-3-fluorophenyl)-2-methyl-4,7,35,40-tetraoxo-39-undecyl-3,10,13,16,19,22,25,28,31-nonaoxa-6,34,39-triazapentacontan-50-oic acid]: in data set [1], the “% Release of degrader after 24 h PBS” value is recorded as 2.8% and the “Plasma stability (h) PBS” value is >48 h. Besides, in data set [2], the “% Release of degrader after 24 h mouse” value came out at 20.1% and the “Plasma stability (h) mouse” value is reported as >48 h. Further, in data set [3], the “% Release of degrader after 24 h rat” value stood at 18.1% and the “Plasma stability (h) rat” value was >48 h. Besides, in data set [4], the “Plasma stability (h) dog” value is >48 h and the “% Release of degrader after 24 h dog” value was determined as 13.1%.

As to `CCCCCCCCCCCN(C(=O)CCCCCCCCCC(=O)O)C(CCC(=O)NCCOCCOCCOCCOCCOCCOCCOCCOCCOCCOCCOCCOCCC(=O)N1CCC(F)(C(=O)OC(C)(C)c2ccc(C(=O)Nc3cc(F)cc(-c4ncnc5[nH]c(-c6ccc(CCN7CCC8(CC7)CCN(C(=O)c7ccc(OC)c(N9CCC(=O)NC9=O)c7)CC8)cc6)cc45)c3C)c(F)c2)CC1)C(=O)O` (stereo not drawn) [Example A15, 44-Carboxy-1-(4-(((2-(4-((3-(6-(4-(2-(9-(3-(2,4-dioxotetrahydropyrimidin-1(2H)-yl)-4-methoxybenzoyl)-3,9-diazaspiro[5.5]undecan-3-yl)ethyl)phenyl)-7H-pyrrolo[2,3-d]pyrimidin-4-yl)-5-fluoro-2-methylphenyl)carbamoyl)-3-fluorophenyl)propan-2-yl)oxy)carbonyl)-4-fluoropiperidin-1-yl)-1,41,46-trioxo-45-undecyl-4,7,10,13,16,19,22,25,28,31,34,37-dodecaoxa-40,45-diazahexapentacontan-56-oic acid], in data set [1], the “% Release of degrader after 24 h PBS” value amounted to 0% and the “Plasma stability (h) PBS” value was >48 h. For the same compound, in data set [2], the “% Release of degrader after 24 h mouse” value amounted to 96.9% and the “Plasma stability (h) mouse” value is <2 h. In addition, in data set [3], the “% Release of degrader after 24 h rat” value was 39.4% and the “Plasma stability (h) rat” value is 30 h. Moreover, in data set [4], the “Plasma stability (h) dog” value was determined as 23 h and the “% Release of degrader after 24 h dog” value was found to be 22.5%.

As to `CCCCCCCCCCCN(C(=O)CCCCCCCCCC(=O)O)C(CCC(=O)NCCOCCOCCOCCOCCC(=O)NCC(=O)O[C@H]1CN(C(=O)Nc2cc(F)cc(-c3ncnc4[nH]c(-c5ccc(CCN6CCC7(CC6)CCN(C(=O)c6ccc(OC)c(N8CCC(=O)NC8=O)c6)CC7)cc5)cc34)c2C)C[C@@H]1CC(C)C)C(=O)O` (stereo partly drawn) [Example A30, 23-Carboxy-1-(((3R,4S)-1-((3-(6-(4-(2-(9-(3-(2,4-dioxotetrahydropyrimidin-1(2H)-yl)-4-methoxybenzoyl)-3,9-diazaspiro[5.5]undecan-3-yl)ethyl)phenyl)-7H-pyrrolo[2,3-d]pyrimidin-4-yl)-5-fluoro-2-methylphenyl)carbamoyl)-4-isobutylpyrrolidin-3-yl)oxy)-1,4,20,25-tetraoxo-24-undecyl-7,10,13,16-tetraoxa-3,19,24-triazapentatriacontan-35-oic acid], in data set [1], the “Plasma stability (h) PBS” value is given as >72 h. Further, the “Plasma stability (h) mouse” value in data set [2] is <1 h.

Take `CCCCCCCCCCCN(C(=O)CCCCCCCCCC(=O)O)[C@@H](CCC(=O)NCC(=O)O[C@H]1CN(C(=O)Nc2cc(F)cc(-c3ncnc4[nH]c(-c5ccc(CCN6CCC7(CC6)CCN(C(=O)c6ccc(OC)c(N8CCC(=O)NC8=O)c6)CC7)cc5)cc34)c2C)C[C@@H]1CC(C)C)C(=O)O` [Example A31, 11-(((S)-1-Carboxy-4-((2-(((3R,4S)-1-((3-(6-(4-(2-(9-(3-(2,4-dioxotetrahydropyrimidin-1(2H)-yl)-4-methoxybenzoyl)-3,9-diazaspiro[5.5]undecan-3-yl)ethyl)phenyl)-7H-pyrrolo[2,3-d]pyrimidin-4-yl)-5-fluoro-2-methylphenyl)carbamoyl)-4-isobutylpyrrolidin-3-yl)oxy)-2-oxoethyl)amino)-4-oxobutyl)(undecyl)amino)-11-oxoundecanoic acid]: in data set [1], the “Plasma stability (h) PBS” value is given as >72 h. The values for the half-life at 5 µM in data set [2], in data set [3] and in data set [4] were < 1 h, 1.2 h and 33.6 h, respectively.
